Data reported in patent US20220313789A1, “TARGETING MELANOCORTIN 3 RECEPTOR FOR TREATMENT/PREVENTION OF EATING, METABOLISM, AND/OR EMOTIONAL DISORDERS” (The Regents of the University of Michigan, priority 2019, published 2022).
“Also recorded” adds a separate entry of the source. Bridge positions count the residues as written; N and C are the ends. Square brackets hold non-standard residues; d marks the D form. d2Nal = N[C@H](Cc1ccc2ccccc2c1)C(=O)O; Nle = CCCC[C@H](N)C(=O)O

Columns and labels:
MC3R [1] = target: T1, MC3R (Mus musculus, UniProt P33033); assay: MC3R agonist feeding assays (food intake, body weight) in WT mice; assay type: in vivo
T1 construct: from tissue; host or cells: living mice (C57/BL6J background), central nervous system / hypothalamus
T1 sequence (P33033 whole entry): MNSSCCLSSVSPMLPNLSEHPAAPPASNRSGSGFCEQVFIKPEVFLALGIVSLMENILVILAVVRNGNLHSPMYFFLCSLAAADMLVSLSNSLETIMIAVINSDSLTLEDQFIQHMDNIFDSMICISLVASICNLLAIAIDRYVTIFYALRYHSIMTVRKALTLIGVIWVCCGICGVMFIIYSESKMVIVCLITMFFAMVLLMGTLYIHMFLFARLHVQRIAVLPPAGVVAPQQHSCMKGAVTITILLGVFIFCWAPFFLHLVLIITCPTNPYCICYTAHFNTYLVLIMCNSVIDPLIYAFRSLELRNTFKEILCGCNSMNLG
Method: Clozapine-N-Oxide (CNO) was purchased from Enzo Life Sciences. On the day of experiments fresh stock CNO (1 mg/0.1 ml) was prepared in water. CNO was administered via i.p. injections (200 ul Saline; 1 mg/kg). […] (5 ug; 500 nl DMSO).
Behavioral assays were performed on ad libitum fed mice. Mice were single caged for at least one week prior to starting feeding assays. Feeding assays were performed during the light period.
For peripheral administration of MC3R agonist compounds, mice were first habituated to vehicle injections (i.p.; saline in 10% DMSO; 200 ul) for 2-4 consecutive days. Following habituation and consecutive days of stable food intake in response to vehicle injections, agonist compounds were administered (i.p.; 10 mg/kg; saline in 10% DMSO). Food intake was measured following drug or vehicle administration by carefully removing food from the food hopper and weighing on a scale. Cages were changed daily during acute feeding assays to prevent spillage of food from the food hopper.
(§1) For central administration of MC3R agonist compounds we first administered vehicle injections (500 nl DMSO) for 2-4 consecutive days to habituate mice to handling and injection. […] Body weight was measured daily immediately prior to injections.

MC3R KO mice = assay: Feeding after i.c.v. administration in MC3R KO mice; assay type: in vivo
Method: FIG. 13. […] Data shown as mean+/−s.e.m. Panels A and B analyzed with Student's paired t-test. n=9 mice for panels A and B.
B: 24-hour food intake following administration of vehicle (aCSF) or C18 to WT mice. […] C: Change in BW following injection of vehicle or C18 (5 ug). D and E: Cumulative food intake (D) and 24-hour food intake (E) following C18 or vehicle administration in MC3R KO mice. […] F: Cumulative food intake following administration of the MC3R antagonist C11 or vehicle. […] G: 24-hour food intake in WT mice following administration of C11. H: Change in BW following injection of vehicle or C11 (5 ug). I and J: Food intake following i.c.v. injection of vehicle (DMSO, 500 nl) or C11 (5 ug, 500 nl) in MC3R KO mice. […] Data represents mean+/−s.e.m. […] Panels B, C, G, H, and J analyzed with unpaired Student's t-test. n=7 mice and n=8 mice for vehicle and C18 groups in panels A-C. n=19 mice for panels F and G. n=6 mice for vehicle and n=8 mice for C11 group in panel H. n=12 mice for vehicle and C18 group in panels D and E. n=8 mice for vehicle and C11 groups in panels I and J.
as §1

AgRP neurons = assay: Feeding after MC3R agonist with chemogenetic (hM4Di) inhibition of AgRP neurons; assay type: in vivo, mice
Method: FIG. 7. […] Either saline or CNO (1 mg/kg, i.p.) was administered fifteen minutes prior to i.c.v. injections. […] Data represented as mean+/−s.e.m.
A and B: Schematic of experimental strategy to express inhibitory DREADD virus in hypothalamic AgRP neurons (A) and representative image of DREADD transduced AgRP neurons (B). Scale bar, 200 um. C: Food intake following administration of C18 in the presence of saline or CNO (0.1 mg/kg, i.p.). […] D: RNAscope analysis of MC3R expression in WT and AgRP-MC3R KI mice. […] Scale bar, 500 um.
To inhibit AgRP neurons, the arcuate nucleus of AgRP-Cre mice was targeted with stereotaxic viral injections of Cre-dependent AAV viral vectors expressing the chemogenetic inhibitor hM4Di (FIG. 7).

MC3R [2] = target: T1, MC3R; assay: Open field test; assay type: in vivo, mice
Method: (§2) Anxiety behavioral assays were performed in the following order with 2-4 days separated between each anxiety assay: elevated plus maze, open field test, novelty suppressed feeding test. Behavioral assays were performed during the light cycle between 10 am-5 pm. Open field and elevated plus maze testing was performed in ad libitum fed mice with one exception.
Open field tests were performed as previously described (Refs. 55-57; herein incorporated by reference in their entireties). Mice were placed in the corner of a 50 cm×50 cm open field chamber. The center of the arena was marked as the 25 cm×25 cm area in the center of the open field. Exploratory activity was recorded for five minutes using ANYmaze software (Stoelting). Entries to the center, time in the center, distance in the center, and total distance traveled were automatically recorded with video tracking software. For PG992 experiments, mice were randomly assigned to receive either vehicle or PG992 injections. One week later the order of treatments was reversed such that each mouse received both vehicle and PG992 treatment in random order. For DREADD mediated assays, mice were administered CNO on the day of testing. Differences in open field activity between DREADD transduced mice and WT littermates were compared on testing day in response to CNO treatment. Similarly, MC3R KO and WT mice were testing in the open field on the same day in random order and differences in exploratory activity were calculated as previously described.

MC3R [3] = target: T1, MC3R; assay: Elevated plus maze; assay type: in vivo, mice; conditions: 5 ug, i.c.v., elevated plus maze
Method: as §2
To perform elevated plus maze tests mice were initially placed into the closed arm of the elevated plus maze arena. The arena consisted of 2 50 cm long arms. One arm was enclosed by walls while the other arm was open. Activity in the maze was recorded for five minutes using animal tracking software (ANYmaze, Stoelting). Latency to enter the open arms, total distance traveled, entries to open arms, time in open arms, and distance traveled in the open arms was automatically calculated using tracking software. Treatment schedules for the elevated plus maze were identical to those described for the open field test.

MC3R [4] = target: T1, MC3R; assay: Novelty suppressed feeding test; assay type: in vivo, mice; conditions: i.c.v., NSF test
Method: as §2
Prior to testing, mice were fasted overnight (6 pm-10 am). NSF testing was performed in the open field arena described above. Briefly, a single pellet of food (3-4 grams) was placed in the center of the open field. Mice were placed in the corner of the open field and their activity was automatically scored for ten minutes using animal tracking software. Latency to eat the food was manually recorded during testing. Feeding was scored as five consecutive seconds of chewing on the food.

[5] = i.c.v. 5 ug in 500 nl DMSO vs vehicle

Ac-Nle-c[Asp-Trp-Pro-DNal(2′)-Arg-Trp-Lys]-NH2 (Ac-[Nle]DWP[d2Nal]RWK-NH2; lactam 2-8) [PG992]
weight gain (MC3R [1]; 3 days of treatment): 8%
24 h food intake (MC3R [1]; PG990 series of peptides, route not given in the sentence): increases 24 h food intake
stimulation of food intake (MC3R [1]; central injection (i.c.v.), 5 μg): ~50%
24-hour food intake compared with chemogenetic (DREADD) neuron activation (MC3R [1]; i.c.v. PG992 vs CNO/hM3Dq): increased 24-hour food intake to a greater extent than chemogenetic activation of AgRP neurons; also recorded: even more potent inducer of 24 h food intake than DREADD activation of MC3R ARC neurons; also recorded: produced a greater change in 24-hour food intake than AgRP neuron activation
Feeding in response to central administration (MC3R [1]; i.c.v., 5 ug in 500 nl DMSO, vs vehicle): acutely stimulated feeding at all measured time-points
Food intake at 4 and 24 hours (MC3R [1]; i.c.v., 5 ug, single injection): increased food intake at both 4 hours and 24 hours post injection
increase in body weight each treatment day (MC3R [1]; once daily i.c.v. injections): 2-3%
Daily food intake (MC3R [1]; once daily i.c.v. injections (5 ug)): increased daily 24-hour food intake on each day of treatment
duration of food intake stimulation (MC3R [1]; single i.c.v. injection): at least 24 hours
24-hour food intake (MC3R KO mice; [5]): No significant difference in 24-hour food intake
Acute food intake (MC3R KO mice; [5]): No significant difference in food intake
body weight (MC3R KO mice; icv): no activity on food intake or body weight
food intake (MC3R KO mice; icv): no activity on food intake or body weight; also recorded: No effect on food intake
PG992 induced stimulation of food intake under AgRP neuron inhibition (AgRP neurons; CNO (1 mg/kg, i.p.) before PG992 5 ug i.c.v., hM4Di in AgRP neurons): significantly reduced the ability of PG992 to stimulate feeding; also recorded: significantly reduced in the presence of AgRP neuron inhibition
4-hour, 8-hour and 24-hour food intake (AgRP neurons; PG992 5 ug i.c.v., saline or CNO (1 mg/kg, i.p.) fifteen minutes before): robustly stimulated food intake at 4 hours, 8 hours, and 24 hours; also recorded: increased food intake following both saline and CNO injections at all time-points
distance traveled in the center (MC3R [2]; 5 ug, i.c.v.): increased the distance traveled in the center; also recorded: increased distance traveled in the center
entries in the center (MC3R [2]; 5 ug, i.c.v.): increased entries to the center; also recorded: increased distance traveled in the center and entries in the center
latency to enter the center (MC3R [2]; 5 ug, i.c.v.): decreased the latency to enter the center; also recorded: reduced latency to enter the center of the arena
total distance traveled (MC3R [2]; 5 ug, i.c.v.): Total distance traveled was also increased
anxiolytic activity (MC3R [2]; ICV, elevated plus maze, and novelty suppressed feeding assay): clear anxiolytic activity
Entries to the open arms (MC3R [3]): trended towards being higher; also recorded: entered the open arms more frequently
distance traveled in the open arms (MC3R [3]): increasing distance traveled in the open arms; also recorded: traveled more distance in the open arms
latency to enter the open arms (MC3R [3]): decreasing latency to enter the open arms; also recorded: entered the open arms faster
total distance traveled (MC3R [3]): increased total distance traveled in the elevated plus maze
distance traveled (MC3R [4]): without significantly effecting total distance traveled; also recorded: did not affect distance traveled
latency to eat (MC3R [4]): decreased latency to feed; also recorded: reduced latency to eat
total time eating (MC3R [4]): increased total time eating
